Patent publication US20040242853A1
Square brackets hold non-standard residues; d marks the D form. Ends that are not written are not given here. Ahx = NCCCCCC(=O)O

Assays:
[1] = target: human GLP-1 receptor (CHO cells stably transfected with the human GLP-1 receptor) (human) (UniProt P43220); test: displacement of 125I-GLP-1 from intact CHO/GLP-1R cells (Example 9)
[2] = test system: GLP-1 (7-36) amide
[3] = test system: GLP-1 6-aminohexanoic acid8
[4] = target: T1, human GLP-1 receptor (CHO cells stably transfected with the human GLP-1 receptor) (human), P43220; test: displacement of 125I-GLP-1 from intact CHO/GLP-1R cells (Example 9)
T1 chain: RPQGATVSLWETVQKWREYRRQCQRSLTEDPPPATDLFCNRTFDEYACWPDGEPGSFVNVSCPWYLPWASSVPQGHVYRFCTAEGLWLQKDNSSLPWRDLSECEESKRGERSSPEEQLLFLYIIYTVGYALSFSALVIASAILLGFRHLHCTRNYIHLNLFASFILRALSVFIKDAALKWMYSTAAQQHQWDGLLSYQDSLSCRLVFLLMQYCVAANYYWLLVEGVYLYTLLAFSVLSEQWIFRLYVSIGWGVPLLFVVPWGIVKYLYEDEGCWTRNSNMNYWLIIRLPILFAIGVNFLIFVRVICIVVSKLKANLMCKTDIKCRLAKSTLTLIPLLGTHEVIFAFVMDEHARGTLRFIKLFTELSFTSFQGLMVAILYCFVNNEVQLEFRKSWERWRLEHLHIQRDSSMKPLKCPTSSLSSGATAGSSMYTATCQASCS

[5] = target: T1, human GLP-1 receptor (CHO cells stably …); test: cell-based or functional assay

Chain of Exendin (1-35) (peptide; other documents disagree on this pair) (C6EVG1 48-82): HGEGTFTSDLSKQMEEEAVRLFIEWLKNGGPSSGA

Exendin (1-35) (peptide; other documents disagree on this pair)
IC50 [1]: 7 nM

recombinant DPPIV (dipeptidyl peptidase IV)
N-terminal truncated product measured by MALDI-TOF [2]: caused a considerable increase in the amount of N-terminal truncated product (Mr=3089 gmol-1) as measured by MALDI
N-terminal truncated product measured by MALDI-TOF [3]: In contrast GLP-1 Aha^8 (2 µM) appeared resistant to either treatment

HGEGTFTSDVSSYLEGQAAKEFIAWLVKGRPSSGAPPPS (modifications not checked) [GLP-1 Gly8(7-36) Exendin(31-39)]
IC50 [4]: 74 nM

H[Ahx]AEGTFTSDVSSYLEGQAAKEFIAWLVKGR (ends and bridges not checked) [GLP-1 6-aminohexanoic acid8]
intracellular cAMP production in CHO/GLP-1R cells (fold above basal) [5]: 4
